Experimental data reported in paper PMC11678932, “A Signal-On Microelectrode Electrochemical Aptamer Sensor Based on AuNPs–MXene for Alpha-Fetoprotein Determination”.

Biological target: T1, alpha-fetoprotein (AFP) (UniProt P02771 19-609)
T1 sequence: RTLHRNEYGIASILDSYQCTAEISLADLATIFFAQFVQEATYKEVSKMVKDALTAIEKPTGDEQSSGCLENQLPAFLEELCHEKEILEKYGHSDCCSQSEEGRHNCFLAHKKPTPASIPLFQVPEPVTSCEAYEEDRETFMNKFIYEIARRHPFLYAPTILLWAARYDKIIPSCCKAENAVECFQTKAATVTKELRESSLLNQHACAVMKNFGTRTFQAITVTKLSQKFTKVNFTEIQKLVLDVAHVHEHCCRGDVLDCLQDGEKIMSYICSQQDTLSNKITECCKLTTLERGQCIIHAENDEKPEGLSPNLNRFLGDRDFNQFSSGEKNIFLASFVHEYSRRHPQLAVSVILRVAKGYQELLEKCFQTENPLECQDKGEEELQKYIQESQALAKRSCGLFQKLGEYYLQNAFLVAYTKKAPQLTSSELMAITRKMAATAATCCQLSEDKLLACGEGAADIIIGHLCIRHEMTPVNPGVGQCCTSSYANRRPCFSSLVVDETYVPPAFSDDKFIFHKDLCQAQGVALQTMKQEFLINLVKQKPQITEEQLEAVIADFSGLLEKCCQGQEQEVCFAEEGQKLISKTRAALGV
Assay: electrochemical aptasensor (DPV); signal-on; log-linear 1-300 ng/mL, LOD 0.05 ng/mL (not a Kd); Optimized: pH 7, 4 uM aptamer, 40 min aptamer and 30 min AFP incubation; PBS (0.01 M) listed as reagent; temperature not stated for binding
Conditions: protein: commercial; label: 3'-methylene blue

B1: AFP aptamer (ssDNA)
DNA: GTGACGCTCCTAACGCTGACTCAGGTGCAGTTCTCGACTCGGTCTTGATGTGGGTCCTGTCCGTCCGAACCAATC
modifications: 5'-SH; 3'-methylene blue
- binding result: binds
